Assay results from the supplement of paper PMC9170038.

Key:
MS2 coat protein [1] = test: apparent KD of MS2 coat protein, switch ON state; designed switch direction (-1 OFF switch, 1 ON switch): -1; higher = weaker reporter binding; conditions: FMN input: 0 or 200 uM; Eterna round: R93 (includes R88 designs)
Outline: (§1)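 Apparent KD was obtained for each design as the median of normalised binding-curve fits over its clusters. RNA switches transcribed on-chip from Illumina sequencing clusters were titrated with SNAP-549-labelled MS2 coat protein (twofold steps, 0.7 or 1.5 nM to 3 µM) in 100 mM Tris-HCl pH 7.5, 80 mM KCl, 4 mM MgCl2, without or with constant ligand.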

MS2 coat protein [2] = test: apparent KD of MS2 coat protein, switch OFF state (with FMN for OFF switches, without FMN for ON switches); designed switch direction (-1 OFF switch, 1 ON switch): -1; higher = weaker reporter binding; conditions: FMN input: 0 or 200 uM; Eterna round: R93 (includes R88 designs)
Outline: as §1

AAAGGACAUGAGGAUCACCCAUGUGAGGAUAUGACGUAAAUAAAGAAAGAAGAAAUCGUCAGAAGGCACACCUA [55%, Disencluded 2, 2]
apparent KD of MS2 coat protein (MS2 coat protein [1]): 40.7 nM | apparent KD of MS2 coat protein (MS2 coat protein [2]): 45.1 nM

AAGACUAGAGGAUAUACAUGAGGAUCACCCAUGUAACUGUCAGGAGACUGACGGAGAAGUAGAAGGCUAGUCAA [Mat - Exclusion 3 - JL mod - D84]
apparent KD of MS2 coat protein (MS2 coat protein [1]): 15.8 nM | apparent KD of MS2 coat protein (MS2 coat protein [2]): 19.4 nM

AAAAAACAUGAGGAUCACCCAUGUAAGGAUAUGUAAAAUAAAAGAAAAAUAAAGAAAAGCAGAAGGUACAUGUA [JL wbt mod 16]
apparent KD of MS2 coat protein (MS2 coat protein [1]): 40.4 nM | apparent KD of MS2 coat protein (MS2 coat protein [2]): 44.5 nM

AAGAAGUGAGGAUAUCGAAGACAGACGAAAAGUCUGUCAAACGAGAAGGCACAUGAGGAUCACCCAUGUGAGAA [What have we learned so far? 64% 2]
apparent KD of MS2 coat protein (MS2 coat protein [1]): 22.6 nM | apparent KD of MS2 coat protein (MS2 coat protein [2]): 38.1 nM

AACAGUACAGGAUAUACAUGAGGAUCACCCAUGUGAAAAUUAAGUGGAAAACCACAGUGUAGAAGGGUACUGGA [Mat - Exclusion 3 - Eli mod - D53]
apparent KD of MS2 coat protein (MS2 coat protein [1]): 47.5 nM | apparent KD of MS2 coat protein (MS2 coat protein [2]): 191 nM

AAGAAGUGAGGAUAUGUCUGUGCGAAAAAAAAAAAGUGCAGACAGAAGGCACAUGAGGAUCACCCAUGUCAAAA [Florian Witold Znaniecki]
apparent KD of MS2 coat protein (MS2 coat protein [1]): 39.4 nM | apparent KD of MS2 coat protein (MS2 coat protein [2]): 39 nM

AAAAAAGGAGGAUAUACGAACAUGUCAAAAGACGUGAAGGGACAUGAGGAUCACCCAUGUAGAAGGUCUAAAAA [JL Part Open 35]
apparent KD of MS2 coat protein (MS2 coat protein [1]): 52.3 nM | apparent KD of MS2 coat protein (MS2 coat protein [2]): 34.1 nM

UCCGGAUUAGGAUAUACAUGAGGAUCACCCAUGUGACAAAAAUAUUUUACAAAACCAUGUAGAAGGAAUCCGGA [E3-1.3]
apparent KD of MS2 coat protein (MS2 coat protein [1]): 125 nM | apparent KD of MS2 coat protein (MS2 coat protein [2]): 408 nM

AUAAACGGAGGAUAUACAUGAGGAUCACCCAUGUAAAAAAAAAAAAGUUCCUCAAAAAGUAGAAGGUCGAAUAA [JR_Exc003_Sub012]
apparent KD of MS2 coat protein (MS2 coat protein [1]): 15.5 nM | apparent KD of MS2 coat protein (MS2 coat protein [2]): 13 nM

AAAAAACAUGAGGAUCACCCAUGUUAGGAUAUCGUGCAGAAAAAAAAAAAAAACUGCACGAGAAGGAACAAGGA [Brourd - Exclusion 1 - Sub 2]
apparent KD of MS2 coat protein (MS2 coat protein [1]): 29.1 nM | apparent KD of MS2 coat protein (MS2 coat protein [2]): 44.9 nM

GAAAAGAAAGGAUAUAAAACAGAGGAUAUACAUAAAUAAAAACAUGAGGAUCACCCAUGUAGAAGGCUGAAAAG [Meechl Ex2 R2 m2]
apparent KD of MS2 coat protein (MS2 coat protein [1]): 33.2 nM | apparent KD of MS2 coat protein (MS2 coat protein [2]): 20.5 nM

AAACCACAUGAGGAUCACCCAUGUGAGGAUAUGAACGAAAUAAAAUAAAAAUAAAAGUUCAGAAGGCACAAAAA [Mat - Exclusion 1 - Eli mod - D14]
apparent KD of MS2 coat protein (MS2 coat protein [1]): 18.2 nM | apparent KD of MS2 coat protein (MS2 coat protein [2]): 20.6 nM

GGUUGGCGAGGAUAUACAUGAGGAUCACCCAUGUGAGAGAAAAAAGUGAGAAAGAAAAGUAGAAGGUGUUGACG [salish99-ex3-70]
apparent KD of MS2 coat protein (MS2 coat protein [1]): 55.4 nM | apparent KD of MS2 coat protein (MS2 coat protein [2]): 56.7 nM

GGAAAGUGAGGAUAUGCAUAACAAAUACAAAGAGAAACAAAGCAGAAGGCACAUGAGGAUCACCCAUGUAAACA [Exclusion 4 Float]
apparent KD of MS2 coat protein (MS2 coat protein [1]): 27.3 nM | apparent KD of MS2 coat protein (MS2 coat protein [2]): 22.7 nM

AAGAAACAUGAGGAUCACCCAUGUAAGGAUAUCUAAAAGAAAAGAAAAGAAAGAAGAAGGAGAAGGUACAAAGG [Sehertawy Intef I]
apparent KD of MS2 coat protein (MS2 coat protein [1]): 26.1 nM | apparent KD of MS2 coat protein (MS2 coat protein [2]): 30 nM

ACCAGUACAGGAUAUACAUGAGGAUCACCCAUGUGAGAAUUAAGUGGCGUACCACAAAGUAGAAGGGUACUGGA [Mat - Exclusion 3 - JL mod - D11]
apparent KD of MS2 coat protein (MS2 coat protein [1]): 43.3 nM | apparent KD of MS2 coat protein (MS2 coat protein [2]): 273 nM

UACUUACAUGAGGAUCACCCAUGUCAGGAUAUGCGCUCAGAGUAUAUAUAAGAUUCAAGCAGAAGGGACACUAA [JR_Exc001_Sub204]
apparent KD of MS2 coat protein (MS2 coat protein [1]): 34.8 nM | apparent KD of MS2 coat protein (MS2 coat protein [2]): 37.2 nM

GUCCGACAUGAGGAUCACCCAUGUAAGGAUAUGUAUCCUUCGGCCCGAACCAGAGGAAGCAGAAGGUACAGGGA [Oneserqu]
apparent KD of MS2 coat protein (MS2 coat protein [1]): 24.8 nM | apparent KD of MS2 coat protein (MS2 coat protein [2]): 20.9 nM

CCAAACGGAGGAUAUACAAAUUAAGGAAAAAAACGCGAAAAACAUGAGGAUCACCCAUGUAGAAGGCCGAAAAA [Ex 2 #2]
apparent KD of MS2 coat protein (MS2 coat protein [1]): 20.3 nM | apparent KD of MS2 coat protein (MS2 coat protein [2]): 18.5 nM

AAAACGUGAGGAUAUACAUGAGGAUCACCCAUGUGAAACAGGAAAAACUGAAAGAAAAGUAGAAGGCACGAAAA [Tweaking Eli]
apparent KD of MS2 coat protein (MS2 coat protein [1]): 29 nM | apparent KD of MS2 coat protein (MS2 coat protein [2]): 44.4 nM

GGUUGGCGAGGAUAUACAUGAGGAUCACCCAUGUGAGAGAAAAAAGUGAGGAGGGAAAGUAGAAGGCGCUGACG [salish99-ex3-16]
apparent KD of MS2 coat protein (MS2 coat protein [1]): 27.3 nM | apparent KD of MS2 coat protein (MS2 coat protein [2]): 41.9 nM

AUAAAACAUGAGGAUCACCCAUGUGAGGAUAUGCGAAAAAAAAAAAGAAAAAAAAAAAGCAGAAGGCACAAUAA [Amethyst 43]
apparent KD of MS2 coat protein (MS2 coat protein [1]): 32.8 nM | apparent KD of MS2 coat protein (MS2 coat protein [2]): 34.9 nM

AAAAAGUUAGGAUAUACAUGAGGAUCACCCAUGUACAUAUAUGGAGAAUAUAGCAGUAGUAGAAGGGACAAAAA [EX2 Malc#13]
apparent KD of MS2 coat protein (MS2 coat protein [1]): 26.9 nM | apparent KD of MS2 coat protein (MS2 coat protein [2]): 34.8 nM

AGAGACAGAGGAUAUACAUGAGGAUCACCCAUGUAAGAGAAAGAAAAGGGAAAGAAAAGUAGAAGGCUGAGAGA [Ruby 67]
apparent KD of MS2 coat protein (MS2 coat protein [1]): 24.2 nM | apparent KD of MS2 coat protein (MS2 coat protein [2]): 28.7 nM

AAGAACGCAGGAUAUACUAAAGAAAUGAAAAGAAAUAAAGAACAUGAGGAUCACCCAUGUAGAAGGGCGAAGAA [Merdjefare]
apparent KD of MS2 coat protein (MS2 coat protein [1]): 39.4 nM | apparent KD of MS2 coat protein (MS2 coat protein [2]): 32.1 nM

AGUAGGCGAGGAUAUACAUGAGGAUCACCCAUGUGAAAGAAAAAAGUGAGAAAGAAAAGUAGAAGGCGCUGACA [Ex 3 mod of Eli's mod of Lego's 73%]
apparent KD of MS2 coat protein (MS2 coat protein [1]): 60.4 nM | apparent KD of MS2 coat protein (MS2 coat protein [2]): 204 nM

AGUUGGCGAGGAUAUACAUGAGGAUCACCCAUGUGAUAGAAAAAAGUGAGAAAGAAAAGUAGAAGGCGCUGACA [Mat - Exclusion 3 - Lego mod - D92]
apparent KD of MS2 coat protein (MS2 coat protein [1]): 69.9 nM | apparent KD of MS2 coat protein (MS2 coat protein [2]): 254 nM

AGCAGGUGAGGAUAUCGAUUAAGAUUAACAUUAUUAUUAAACGAGAAGGCACAUGAGGAUCACCCAUGUAAGGA [Exclusion 4Col]
apparent KD of MS2 coat protein (MS2 coat protein [1]): 43.4 nM | apparent KD of MS2 coat protein (MS2 coat protein [2]): 51.8 nM

GAAAUACGAGGAUAUACAUGAGGAUCACCCAUGUCAAAAAAUGACUACACAAAAGAAAGUAGAAGGCGUAAAAG [Mat - Exclusion 3 - Mayanna mod - D128]
apparent KD of MS2 coat protein (MS2 coat protein [1]): 28.6 nM | apparent KD of MS2 coat protein (MS2 coat protein [2]): 38.4 nM

UCCUUACAUGAGGAUCACCCAUGUUAGGAUAUCUCGCUUGCGCAAUCACAGCGCAAGCAGAGAAGGGACGCGGG [Ledige]
apparent KD of MS2 coat protein (MS2 coat protein [1]): 22.8 nM | apparent KD of MS2 coat protein (MS2 coat protein [2]): 29.1 nM

AAAAAACAUGAGGAUCACCCAUGUAAGGAUAUCGGAAAAGGAAAAAAAAAAAAUAAGACGAGAAGGUACACCAA [Mat - Exclusion 1 - Eli mod - D79]
apparent KD of MS2 coat protein (MS2 coat protein [1]): 23.3 nM | apparent KD of MS2 coat protein (MS2 coat protein [2]): 31.2 nM

AACAUGUAAGGAUAUCAAAGAAAAGAAAAGAAAGAAAAGAAUGAGAAGGUACAUGAGGAUCACCCAUGUAAGAA [EteRNA is fun!]
apparent KD of MS2 coat protein (MS2 coat protein [1]): 27.9 nM | apparent KD of MS2 coat protein (MS2 coat protein [2]): 21.1 nM

AAUUCACAUGAGGAUCACCCAUGUAAGGAUAUCGAAAUAAAACUAAUCAAAAAACAAACGAGAAGGUACAAAAA [Exclusion 1 design 7]
apparent KD of MS2 coat protein (MS2 coat protein [1]): 23.6 nM | apparent KD of MS2 coat protein (MS2 coat protein [2]): 26.3 nM

AAAAGCUAAGGAUAUACAUGAGGAUCACCCAUGUAGAACAGUGUAUGGGUAAAGGCGCGUAGAAGGUAGAAAAG [Arbileat]
apparent KD of MS2 coat protein (MS2 coat protein [1]): 29.9 nM | apparent KD of MS2 coat protein (MS2 coat protein [2]): 42.1 nM
